Target: Fyn SH3 domain, His6-tagged SUMO fusion (human, UniProt P06241 82-143)
Assay: ELISA

Sequence of Fyn SH3 domain, His6-tagged SUMO fusion (P06241 82-143): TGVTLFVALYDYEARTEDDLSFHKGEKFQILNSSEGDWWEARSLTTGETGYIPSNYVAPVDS

IC50: ~440 nM
Binder: VSLARRPLPPLPGGK [proline-rich peptide VSLARRPLPPLPGGK]

Reference: PMC3319870 (New Biotechnology, 2011)
